According to paper PMC12312386, “Multiple transactivation domains of EZH2 bind to the TAZ2 domain of p300 and stimulate the acetyltransferase function of p300” (Biochemical Journal, 2025):
Where “and” joins values, the source holds several entries; their conditions need not be identical. Equal entries are not always repeated.

T1: GST-p300_(TAZ2) (human, UniProt Q09472 1722-1812, tryptophan substituted at A1723)
T1 construct: TAZ2 domain of human p300, aa 1722-1812, with a tryptophan substituted at A1723; pGEX-4T-1 vector with an additional TEV cleavage site; Dimeric in mass photometry (~80 kDa); also called GST-fusion of p300 TAZ2; source: E. coli Rosetta-2 (DE3) pLysS, purified (glutathione agarose, cation exchange or heparin)
T1 sequence (looked up): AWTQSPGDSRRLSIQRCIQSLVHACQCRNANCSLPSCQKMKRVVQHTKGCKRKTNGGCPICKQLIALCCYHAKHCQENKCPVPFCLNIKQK

T2: GST-EZH2_(TAD1) (aa 142-160 of EZH2) (human, UniProt Q15910 142-160)
T2 construct: EZH2, human, aa 142-160, made by deletion from the aa 142-231 construct in pGEX-6P-1; Dimeric in mass photometry (~70 kDa); Limits differ from the synthetic EZH2_(TAD1) peptide (142-154); source: E. coli Rosetta-2 (DE3) pLysS, purified (glutathione agarose, Ni-NTA)
T2 chain (looked up): DGTFIEELIKNYDGKVHGD

B1: p300 TAZ2 domain, untagged (p300_(TAZ2)) (domain or fragment, human, UniProt Q09472 1722-1812, looked up)
chain: AWTQSPGDSRRLSIQRCIQSLVHACQCRNANCSLPSCQKMKRVVQHTKGCKRKTNGGCPICKQLIALCCYHAKHCQENKCPVPFCLNIKQK
notes: TAZ2 domain of human p300, aa 1722-1812, with a tryptophan substituted at A1723; Uniformly 15N-labeled for NMR, unlabeled in mass photometry; they are printed there only as p300_(TAZ2); also called 15N-labeled p300_(TAZ2); source: E. coli Rosetta-2 (DE3) pLysS, purified (glutathione agarose, TEV cleavage, cation exchange or heparin)

Legend:
Settings in all cases: both partners purified
[1] = molecular target: T1, GST-p300_(TAZ2); test: mass photometry; 20 nM GST-p300_(TAZ2) with EZH2_(TAD1-TAD2) (5 μM) or EZH2_(TAD1-TAD2-TAD3) (1 μM); room temperature; 50 mM Tris pH 7.5, 150 mM NaCl, 5 mM DTT
[2] = molecular target: T2, GST-EZH2_(TAD1) (aa 142-160 of EZH2); test: mass photometry; 20 nM GST-EZH2_(TAD1) with p300_(TAZ2) (0.1 μM); room temperature; 50 mM Tris pH 7.5, 150 mM NaCl, 5 mM DTT
[3] = molecular target: B1; test: NMR titration; 1H,15N HSQC of 50–100 μM 15N-labeled p300_(TAZ2), unlabeled peptide titrated; 298 K; 50 mM MES pH 6.5, 150 mM NaCl, 5 mM DTT

Binder	binding result [3]	other results
EZH2_(TAD1-TAD2-TAD3) (aa 142-231 of EZH2) with C-terminal 6xHis tag (domain or fragment, EZH2, human, aa 142-231, holds TAD1, TAD2 and TAD3; pGEX-6P-1 vector; also called triple EZH2_(TAD1-TAD2-TAD3); source: E. coli Rosetta-2 (DE3) pLysS, purified (glutathione agarose, PreScission cleavage, Ni-NTA)) not shown		stoichiometry N [1]: 6 GST-p300_(TAZ2) per EZH2_(TAD1-TAD2-TAD3)
B1		stoichiometry N [2]: 1 p300_(TAZ2) per GST-EZH2_(TAD1) dimer and 2 p300_(TAZ2) per GST-EZH2_(TAD1) dimer
DGTFIEELIKNYD (peptide, UniProt Q15910 142-154, looked up, source: synthetic peptide (SynPeptide Co. Ltd.)) [EZH2_(TAD1) peptide (aa 142-154 of EZH2)]	binds	
NDEIFVELVNALGQYNDDD (peptide, UniProt Q15910 167-185, looked up, source: synthetic peptide (SynPeptide Co. Ltd.)) [EZH2_(TAD2) peptide (aa 167-185 of EZH2)]	binds	
SDKIFEAISSMF (peptide, UniProt Q15910 220-231, looked up, source: synthetic peptide (SynPeptide Co. Ltd.)) [EZH2_(TAD3) peptide (aa 220-231 of EZH2)]	binds	
